Where two headings read alike, the source gives them in different places.
B1: 2-C8-A (antibody, V domains shown)
VH: EVQLVESGGGLVQPGGSQRLSCAASGFTFSSYWMNWVRQAPGKGLEWVANIKEDGSEKYYVDSVKGRFTISRDNAKNSLYLQMNSLRAEDTAVYYCARDPGWAPFDYWGQGTLVTVSS
VL: DIQMSQSPSSLSASVGDRVTITCRASQGISNYLAWFQQKPGKAPKSLIYAASSLQSGVPSKFSGSGSGTDFTLAISSLQPEDFATYYCQQYNSFPYTFGQGTTLEIK
B2: 7-I1-B (antibody, V domains shown)
VH: EVQLVESGGGLVKPGGSLRLSCAASGFTFSNTWMSWVRQAPGKGLEWVGRIKSKSDGGTTDYAAPVKGRFTISRDDSKNTLYLQMNSLKTEDTAVYYCTQYYWNSFDYWGQGTLVTVSS
VL: not shown
B3: 6-G23-F (antibody, V domains shown)
VH: QVQLVQSGAEVKKPGASVKVSCKASGYTFTSYYIHWVRQAPGQGLEWMGIIDPSDGSTNYAQKFQGRVTMTRDTSTSTVYMELSSLRSEDTAVYYCARDREYNYYGLDVWGQGTTVTVSS
VL: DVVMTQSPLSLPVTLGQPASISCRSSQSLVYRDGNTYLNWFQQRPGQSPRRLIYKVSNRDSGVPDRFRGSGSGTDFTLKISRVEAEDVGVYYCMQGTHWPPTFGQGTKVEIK
B4: 10-O18-A (antibody, V domains shown)
VH: QVQLQESGPGLVKPSETLSLTCTVSGGSINSYYWSWIRQPPGKGLEWIGYIFYSGITNYNPSLKSRVTISLDTSKNQFSLKLSSVTAADTAVYYCARIGVAGFYFDYWGQGTLVTVSS
VL: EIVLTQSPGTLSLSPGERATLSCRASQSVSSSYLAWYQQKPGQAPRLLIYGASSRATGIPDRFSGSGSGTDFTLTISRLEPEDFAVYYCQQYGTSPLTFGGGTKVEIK

Columns and labels:
Assay in all cases: BLI (Octet HTX)
[1] = molecular target: T1, Recombinant Human DLL3 Protein (amino acids Ala27-Ala479, cat #9749-DL, R&D Systems) (UniProt Q9NYJ7 27-479)
T1 chain: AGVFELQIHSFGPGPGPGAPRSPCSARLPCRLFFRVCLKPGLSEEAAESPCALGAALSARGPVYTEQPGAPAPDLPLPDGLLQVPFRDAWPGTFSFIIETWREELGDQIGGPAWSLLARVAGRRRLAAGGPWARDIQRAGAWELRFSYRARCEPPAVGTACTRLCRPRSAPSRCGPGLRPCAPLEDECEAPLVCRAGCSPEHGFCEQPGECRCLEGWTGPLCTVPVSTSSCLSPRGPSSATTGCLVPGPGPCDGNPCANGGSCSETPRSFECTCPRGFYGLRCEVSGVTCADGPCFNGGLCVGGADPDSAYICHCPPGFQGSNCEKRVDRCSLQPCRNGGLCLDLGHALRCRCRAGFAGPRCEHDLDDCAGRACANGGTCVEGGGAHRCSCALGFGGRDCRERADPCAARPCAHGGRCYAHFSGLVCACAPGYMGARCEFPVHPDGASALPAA

[2] = molecular target: T1, Recombinant Human DLL3 Protein (amino …)
[3] = molecular target: T1, Recombinant Human DLL3 Protein (amino …)

| Binder | Kd [1] [pM] | Kd [2] [pM] | Kd [3] [pM] |
| --- | --- | --- | --- |
| B1 | 668 | 668 |  |
| B2 | 680 |  | 686 |
| B3 | 160 |  | 160 |
| B4 | 620 | 602 |  |

From US20240115721A1 (published 2024)
